Assay results reported in paper PMC9728185.
Several values for one entry are separate records, joined by “and”; a condition that tells them apart may be missing. Equal entries are not always repeated.

Target: Glycerol dehydrogenase from Klebsiella pneumoniae (encoded by gldA, strain MGH78578) (Klebsiella pneumoniae strain MGH78578)
Assay: SEC; analytical Superdex-200 10/300 GL, 20 mM Tris-HCl, 0.1 mM TCEP, 200 mM NaCl, pH 8.0, 0.5 ml/min; 200 ul of purified KpGlyDH at 4.94 mg/ml; masses from a standard curve of reference proteins; octamer and hexadecamer in equilibrium

Glycerol dehydrogenase from Klebsiella pneumoniae (encoded by gldA, strain MGH78578) (enzyme)
stoichiometry N: 8 and 16
